Experimental data as given in patent US20190367961A1, “MOGROL GLYCOSYLTRANSFERASE AND GENE ENCODING SAME” (SUNTORY HOLDINGS LIMITED, priority 2014, published 2019).

B1: UGT85C2: steviol glycosyltransferase derived from stevia, known to glycosylate mogrol (protein, UniProt Q6VAB0 1-481, looked up)
UDP-glycosyltransferase 85C2: MDAMATTEKKPHVIFIPFPAQSHIKAMLKLAQLLHHKGLQITFVNTDFIHNQFLESSGPHCLDGAPGFRFETIPDGVSHSPEASIPIRESLLRSIETNFLDRFIDLVTKLPDPPTCIISDGFLSVFTIDAAKKLGIPVMMYWTLAACGFMGFYHIHSLIEKGFAPLKDASYLTNGYLDTVIDWVPGMEGIRLKDFPLDWSTDLNDKVLMFTTEAPQRSHKVSHHIFHTFDELEPSIIKTLSLRYNHIYTIGPLQLLLDQIPEEKKQTGITSLHGYSLVKEEPECFQWLQSKEPNSVVYVNFGSTTVMSLEDMTEFGWGLANSNHYFLWIIRSNLVIGENAVLPPELEEHIKKRGFIASWCSQEKVLKHPSVGGFLTHCGWGSTIESLSAGVPMICWPYSWDQLTNCRYICKEWEVGLEMGTKVKRDEVKRLVQELMGEGGHKMRNKAKDWKEKARIAIAPNGSSSLNIDKMVKEITVLARN
B2: UGT73E1: steviol glycosyltransferase derived from stevia, known to glycosylate mogrol (protein, UniProt Q6VAA9 1-495, looked up)
UDP-glycosyltransferase 73E1: MSPKMVAPPTNLHFVLFPLMAQGHLVPMVDIARILAQRGATVTIITTPYHANRVRPVISRAIATNLKIQLLELQLRSTEAGLPEGCESFDQLPSFEYWKNISTAIDLLQQPAEDLLRELSPPPDCIISDFLFPWTTDVARRLNIPRLVFNGPGCFYLLCIHVAITSNILGENEPVSSNTERVVLPGLPDRIEVTKLQIVGSSRPANVDEMGSWLRAVEAEKASFGIVVNTFEELEPEYVEEYKTVKDKKMWCIGPVSLCNKTGPDLAERGNKAAITEHNCLKWLDERKLGSVLYVCLGSLARISAAQAIELGLGLESINRPFIWCVRNETDELKTWFLDGFEERVRDRGLIVHGWAPQVLILSHPTIGGFLTHCGWNSTIESITAGVPMITWPFFADQFLNEAFIVEVLKIGVRIGVERACLFGEEDKVGVLVKKEDVKKAVECLMDEDEDGDQRRKRVIELAKMAKIAMAEGGSSYENVSSLIRDVTETVRAPH

Assay: glucose transfer (glycosylation) activity for mogrol, product analysed by LC-IT-TOF-MS
Assay type: biochemical
Conditions: same enzyme conditions (0.2 mM mogrol, 2 mM UDP-glucose, 30° C., 3 hours)
Method: Purification was carried out using the HisTag of the recombinant protein according to an ordinary method, and glucose transfer activity for mogrol prepared by hydrolyzing a Siraitia grosvenorii extract (Takemoto, T. et al. (1983) YAKUGAKU ZASSHI 103(11), 1167-1173) was evaluated. The enzyme reaction composition was 0.2 mM mogrol as a glucose acceptor, 2 mM UDP-glucose as a glucose donor, and 50 mM calcium phosphate buffer (pH 7.5); an enzyme solution was added thereto, which was then reacted at 30° C. for 3 hours; and the product was analyzed using LC-IT-TOF-MS (Shimadzu Corporation).
Stevia-derived UGT85C2 and UGT73E1 were expressed in the same manner as in the above method. The product amount was measured under the above enzyme conditions to determine relative activity by dividing it by the expressed protein amount. As a result, the relative activities of stevia-derived UGT85C2 and UGT73E1 when the activity of SgUGT74-943 was set to 1 were 0.35 and 0.22, respectively. The glycosylation activity of Siraitia grosvenorii-derived SgUGT74-943 was confirmed to be nearly 3 times higher than those of stevia-derived UGT85C2 and UGT73E1 (FIG. 4).

Molecule | relative activity (product amount divided by expressed protein amount) when the activity of SgUGT74-943 was set to 1
B1 | 0.35
B2 | 0.22
